{
  "source": "paper PMC8847575",
  "about": "“HSL1 and BAM1/2 impact epidermal cell development by sensing distinct signaling peptides” (Nature Communications, 2022)",
  "key": {"[1]": {"target": "HSL1 (HAESA-LIKE 1) ectodomain (Arabidopsis) (UniProt Q9SGP2)", "sequence (Q9SGP2 17-618)": "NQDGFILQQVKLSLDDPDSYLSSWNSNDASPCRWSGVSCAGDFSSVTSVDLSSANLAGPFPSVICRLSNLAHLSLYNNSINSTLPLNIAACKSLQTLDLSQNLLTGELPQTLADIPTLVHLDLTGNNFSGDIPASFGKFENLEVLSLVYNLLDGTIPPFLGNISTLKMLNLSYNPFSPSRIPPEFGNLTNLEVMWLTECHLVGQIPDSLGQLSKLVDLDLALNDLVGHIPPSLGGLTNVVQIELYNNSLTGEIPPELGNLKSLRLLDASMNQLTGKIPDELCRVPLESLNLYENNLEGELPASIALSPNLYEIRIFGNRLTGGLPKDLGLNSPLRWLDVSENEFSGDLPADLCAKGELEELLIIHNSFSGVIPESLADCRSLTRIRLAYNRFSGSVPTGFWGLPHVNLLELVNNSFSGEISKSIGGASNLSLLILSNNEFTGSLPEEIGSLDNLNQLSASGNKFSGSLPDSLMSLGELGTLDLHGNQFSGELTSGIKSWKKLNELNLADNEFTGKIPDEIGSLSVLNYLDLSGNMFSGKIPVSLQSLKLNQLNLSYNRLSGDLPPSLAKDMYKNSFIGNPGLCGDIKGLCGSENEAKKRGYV", "assay": "ITC; peptide (75 to 600 µM) injected into 10 to 30 µM HSL1 or BAM1 ectodomain in the cell; 25 °C; 20 mM sodium citrate pH 5.0, 150 mM NaCl; N fitted to 1"}, "[2]": {"target": "T1, BAM1 (BARELY ANY MERISTEM 1) ectodomain (Arabidopsis, UniProt O49545 20-637)", "T1 chain": "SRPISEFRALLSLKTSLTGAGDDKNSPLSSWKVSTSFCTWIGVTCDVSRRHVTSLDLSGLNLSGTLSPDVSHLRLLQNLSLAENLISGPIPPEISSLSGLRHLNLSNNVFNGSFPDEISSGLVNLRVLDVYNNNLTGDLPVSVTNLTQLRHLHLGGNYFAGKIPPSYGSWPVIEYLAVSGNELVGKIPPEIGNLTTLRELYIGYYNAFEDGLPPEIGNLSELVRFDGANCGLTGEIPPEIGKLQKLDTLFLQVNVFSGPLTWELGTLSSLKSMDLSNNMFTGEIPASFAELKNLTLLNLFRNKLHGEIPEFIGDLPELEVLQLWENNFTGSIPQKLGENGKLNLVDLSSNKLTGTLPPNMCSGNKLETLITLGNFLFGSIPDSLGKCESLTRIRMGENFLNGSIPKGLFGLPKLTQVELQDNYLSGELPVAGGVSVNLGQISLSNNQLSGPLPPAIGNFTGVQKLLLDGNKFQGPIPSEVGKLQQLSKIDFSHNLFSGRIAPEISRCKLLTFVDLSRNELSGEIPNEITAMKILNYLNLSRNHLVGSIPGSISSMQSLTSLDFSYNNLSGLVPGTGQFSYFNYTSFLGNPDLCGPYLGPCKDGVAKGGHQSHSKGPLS", "assay": "ITC; R109P L110I"}, "[3]": {"target": "T1, BAM1 (BARELY ANY MERISTEM 1) ectodomain", "assay": "ITC"}, "[4]": {"target": "T2, BAM1 (BARELY ANY MERISTEM 1) ectodomain (Arabidopsis, UniProt O49545 20-637)", "T2 construct": "BAM1 LRR receptor kinase ectodomain, Arabidopsis, residues 20-637, AT5G65700; codon optimised; secreted with an azurocidin or Drosophila BiP signal peptide; also called BAM1 extracellular domain; BAM1 LRR ectodomain; source: Trichoplusia ni Tnao38 cells (baculovirus), secreted, purified (Ni2+, Strep-Tactin, TEV cleavage, second Ni2+, SEC)", "T2 sequence (looked up)": "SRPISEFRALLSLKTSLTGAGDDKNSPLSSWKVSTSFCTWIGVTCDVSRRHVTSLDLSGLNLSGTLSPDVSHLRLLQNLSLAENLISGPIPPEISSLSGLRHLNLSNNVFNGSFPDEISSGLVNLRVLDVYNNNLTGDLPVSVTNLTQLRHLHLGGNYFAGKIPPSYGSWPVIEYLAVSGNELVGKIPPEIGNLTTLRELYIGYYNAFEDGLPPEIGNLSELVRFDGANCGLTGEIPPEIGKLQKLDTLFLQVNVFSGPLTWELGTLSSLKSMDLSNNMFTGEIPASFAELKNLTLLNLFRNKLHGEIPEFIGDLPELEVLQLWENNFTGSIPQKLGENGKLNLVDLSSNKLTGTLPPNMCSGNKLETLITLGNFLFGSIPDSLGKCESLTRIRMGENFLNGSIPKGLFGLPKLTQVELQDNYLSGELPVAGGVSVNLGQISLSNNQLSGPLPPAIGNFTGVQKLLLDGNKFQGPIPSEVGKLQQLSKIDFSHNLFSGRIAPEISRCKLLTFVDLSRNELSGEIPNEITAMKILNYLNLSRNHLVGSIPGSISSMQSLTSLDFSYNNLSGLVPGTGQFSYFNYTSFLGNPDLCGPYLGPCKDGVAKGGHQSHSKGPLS", "assay": "ITC; peptide (75 to 600 µM) injected into 10 to 30 µM HSL1 or BAM1 ectodomain in the cell; 25 °C; 20 mM sodium citrate pH 5.0, 150 mM NaCl; N fitted to 1", "details": "both partners purified"}},
  "data": [
    {"molecule": "IDA^K66AR67AH68A peptide (from UniProt Q8LAD7 58-69)", "values": [
      {"measurement": "fold reduction of binding affinity against wild-type IDA", "setting": "[1]", "value": 15, "unit": "fold"}
    ]},
    {"molecule": "RIVPSGPNPLHN", "note": "[CLE9 variant with the second residue substituted by the corresponding one of IDA]", "values": [
      {"measurement": "Kd", "setting": "[2]", "value": 129, "unit": "nM"}
    ]},
    {"molecule": "RLVPSGPNPLHN (peptide, UniProt Q9FZE4 109-120, looked up, Pro112 and Pro115 not hydroxylated, CLE9 mature dodecapeptide with plain proline at 112 and 115 in place of hydroxyproline; also called CLE9 with Hyp in positions 4 and 7 replaced by Pro)", "note": "[CLE9^Hyp112PHyp115P peptide]", "values": [
      {"measurement": "Kd", "setting": "[3]", "value": 3, "unit": "nM"},
      {"measurement": "Kd", "setting": "[4]", "value": "~5", "unit": "nM"}
    ]},
    {"molecule": "RLPPSGPNPLHN (peptide, UniProt Q9FZE4 109-120, looked up, CLE9 mature dodecapeptide with Val111 changed to Pro; also called replacement of the third Val by a Pro)", "note": "[CLE9^V111P peptide]", "values": [
      {"measurement": "Kd", "setting": "[4]", "value": 3000, "unit": "nM"}
    ]}
  ]
}
